Reference: publication PMC12430135, “A Unique Trimeric Assembly of Human Dishevelled 1 PDZ Domain in Crystal: Implication of Homo- and Hetero-Oligomerization During Wnt Signaling Process” (Molecules, 2025)

Experiments:
[1] = molecular target: Dvl PDZ PDZ (Homo sapiens) (UniProt O14640); conditions: cited from earlier work
[2] = molecular target: the molecule itself; experiment: crystal structure; hDvl1-PDZ at 8-9.5 mg/ml; vapor diffusion at 20 °C; 0.1 M sodium citrate pH 5.6, 0.5 M ammonium sulfate, 1.0 M lithium sulfate, 0.01 M glutathione, 0.01 M glutathione disulfide; 2.4 Å

Dvl C-terminus C-terminus, sequence (O14640 whole entry, looked up): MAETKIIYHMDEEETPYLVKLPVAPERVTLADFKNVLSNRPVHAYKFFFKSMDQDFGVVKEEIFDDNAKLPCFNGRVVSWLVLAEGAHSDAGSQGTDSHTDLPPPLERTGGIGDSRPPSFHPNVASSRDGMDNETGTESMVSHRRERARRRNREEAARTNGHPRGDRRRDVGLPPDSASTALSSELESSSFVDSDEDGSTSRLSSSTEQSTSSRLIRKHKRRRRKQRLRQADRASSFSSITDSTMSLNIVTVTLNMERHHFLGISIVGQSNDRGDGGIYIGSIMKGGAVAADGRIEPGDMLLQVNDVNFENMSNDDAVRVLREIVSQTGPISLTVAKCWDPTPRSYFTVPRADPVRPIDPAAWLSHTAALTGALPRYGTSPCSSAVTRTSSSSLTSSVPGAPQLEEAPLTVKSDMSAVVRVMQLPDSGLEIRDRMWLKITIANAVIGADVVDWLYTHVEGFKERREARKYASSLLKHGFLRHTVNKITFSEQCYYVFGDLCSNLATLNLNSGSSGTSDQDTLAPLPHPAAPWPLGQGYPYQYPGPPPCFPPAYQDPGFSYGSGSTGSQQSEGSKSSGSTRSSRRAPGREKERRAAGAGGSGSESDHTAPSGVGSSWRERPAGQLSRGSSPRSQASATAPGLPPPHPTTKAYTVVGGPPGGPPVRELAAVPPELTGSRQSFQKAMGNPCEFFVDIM

Molecule | Kd [1] [µM] | stoichiometry N [2]
Dvl C-terminus C-terminus (from UniProt O14640) | 7 | 
PDZ domain of human Dishevelled 1 (hDvl1-PDZ), residues 246-340 with CW338, 339AT (domain or fragment, UniProt O14640 246-340, looked up, Dishevelled 1 (Dvl1), human, PDZ domain, residues 246-340, with two amino acid substitutions (CW338, 339AT); 15N-labelled (M9 medium) for NMR; Calculated molecular weight of the monomer printed as 10,754; also called human Dvl1-PDZ; hDvl1-PDZ1) SLNIVTVTLNMERHHFLGISIVGQSNDRGDGGIYIGSIMKGGAVAADGRIEPGDMLLQVNDVNFENMSNDDAVRVLREIVSQTGPISLTVAKATD |  | 3
